{"source": "paper PMC12152899", "about": "“Disulfide-mediated tetramerization of TRAP1 fosters its antioxidant and pro-neoplastic activities” (Redox Biology, 2025)", "proteins": {"B1": {"name": "recombinant human TRAP1 C501S (natural protein, UniProt Q12931 60-704, looked up)", "chain": "STQTAEDKEEPLHSIISSTESVQGSTSKHEFQAETKKLLDIVARSLYSEKEVFIRELISNASDALEKLRHKLVSDGQALPEMEIHLQTNAEKGTITIQDTGIGMTQEELVSNLGTIARSGSKAFLDALQNQAEASSKIIGQFGVGFYSAFMVADRVEVYSRSAAPGSLGYQWLSDGSGVFEIAEASGVRTGTKIIIHLKSDCKEFSSEARVRDVVTKYSNFVSFPLYLNGRRMNTLQAIWMMDPKDVREWQHEEFYRYVAQAHDKPRYTLHYKTDAPLNIRSIFYVPDMKPSMFDVSRELGSSVALYSRKVLIQTKATDILPKWLRFIRGVVDSEDIPLNLSRELLQESALIRKLRDVLQQRLIKFFIDQSKKDAEKYAKFFEDYGLFMREGIVTATEQEVKEDIAKLLRYESSALPSGQLTSLSEYASRMRAGTRNIYYLSAPNRHLAEHSPYYEAMKKKDTEVLFCFEQFDELTLLHLREFDKKKLISVETDIVVDHYKEEKFEDRSPAAECLSEKETEELMAWMRNVLGSRVTNVKVTLRLDTHPAMVTVLEMGAARHFLRMQQLAKTQEERAQLLQPTLEINPRHALIKKLNQLRASEPGLAQLLVDQIYENAMIAAGLVDDPRAMVGRLNELLVKALERH", "notes": "Cloned in pET-26b(+); same construct as m1 with the mutation; source: E. coli BL21(DE3), purified (Ni-NTA)"}, "B2": {"name": "recombinant human TRAP1 C527A (natural protein, UniProt Q12931 60-704, looked up)", "chain": "B1 chain with S442C, C468A", "notes": "as for B1"}, "B3": {"name": "recombinant human TRAP1 C261S (natural protein, UniProt Q12931 60-704, looked up)", "chain": "B1 chain with C202S, S442C", "notes": "as for B1"}, "B4": {"name": "recombinant human TRAP1 C573R (natural protein, UniProt Q12931 60-704, looked up)", "chain": "B1 chain with S442C, C514R", "notes": "as for B1"}, "B5": {"name": "recombinant human TRAP1 C501S/C527A double mutant (natural protein, UniProt Q12931 60-704, looked up)", "chain": "B1 chain with C468A", "notes": "Cloned in pET-26b(+); same construct as m1 with the mutations; source: E. coli BL21(DE3), purified (Ni-NTA)"}, "B6": {"name": "recombinant human TRAP1 wild type, lacking the mitochondrial import sequence (natural protein, UniProt Q12931 60-704, looked up)", "chain": "B1 chain with S442C", "notes": "Cloned in pET-26b(+); Dimer by gel filtration with DTT; an additional tetramer peak after H2O2; also called WT TRAP1; TRAP1 WT; source: E. coli BL21(DE3), purified (Ni-NTA)"}}, "note": "Positions count from the first letter of the chain named. Numbers in names are those of the source.", "data": [{"target": "the molecule itself", "experiment": "non-reducing SDS-PAGE; purified recombinant TRAP1, DTT removed, 150 mM NaCl, 50 mM TRIS, pH 7.5, 37 °C, 100 μM H2O2 for 30 min (1 nM to 100 μM in Fig. 1B); disulfide-linked band above 170 kDa; Coomassie or stain-free", "values": [{"protein": "B1", "binding result": "binds"}, {"protein": "B2", "binding result": "binds"}, {"protein": "B3", "binding result": "binds"}, {"protein": "B4", "binding result": "binds"}, {"protein": "B5", "binding result": "binds"}]}, {"target": "the molecule itself", "experiment": "SEC; Superdex 200 HR 10/30, 20 mM TRIS, 150 mM NaCl, pH 7; recombinant TRAP1 incubated with 100 μM H2O2; additional peak beside the dimer; dimers to tetramer", "values": [{"protein": "B6", "stoichiometry N": 4}]}]}
